From the nanobody polyreactivity screen of Harvey et al. (2022) come the findings set out here.

The data set in a line: yeast display, Sf9 membrane polyspecificity reagent, FACS + sequencing; frameworks hold sequencing errors. In short, it runs like this:
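Nanobodies came from a synthetic yeast display library in Saccharomyces cerevisiae BJ5465, induced with galactose for 36–48 hours and stained for 1 hour at 4 °C with 10% biotinylated, detergent-solubilized Sf9 membrane reagent. Cells were enriched on streptavidin microbeads and then FACS-sorted, with low and high (top ~1%) gates set on anti-HA fluorescence for expression and streptavidin fluorescence for reagent binding. Each polyreactivity label reflects the gate a clone came from. Genes were amplified by colony PCR, sequenced by MiSeq 2 × 250 and filtered by CDR length.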
Take “QVQLVDSGGVLVQAVGSLRLSCAASGIIFDWYAMGWYRQAPGKERELVAAITANSDSTYYADSVNGRFTISRDNAKNTVYLQMNSLKPEDTAVYYCAARRQHRGANGGDYCGQGTQVTVSS”: the “polyreactivity (PSR sort gate)” value was “high polyreactivity”.
The result for “QVQLVDSGPGLVQAGGSLRLSCAASGGTFQPNARGCYRQAPGKERELVAAISGSGDSTYYADSVKGRFTISRDNAKNTVYLQMNSLKPEDTAVYYCNAYFWFSRYAWGDTSYDYWGQGTQVTVSS” reads “low polyreactivity”; that for “QVQLVDSGVGLVQAGGRLSLSCAASGLIFDFYAMGGYRQAPGKERELVATISWSGGTTSYADSVKGLFTISRDNAKNTVYIQMNSLKPEDTAVYYCAADGFQYTLGNYYWGQGTQVTLSS”, “high polyreactivity”.
As for “QVQLVDSRGGLVQAGGSLRLSCAASGRTFYRYAKGWDRPAPGKERDLVAVITSGSRTKYADSVKGRFTISRDTAKITVYLQMKSLKPEDTAVYSCAARGLALEGKSSGEYWGQGTQVTVSS”, the entry is “high polyreactivity”; as for “QVQLVDSRGGLVQAGGSLRLSCAASGSIFSYYAMGWYRQAPGKEMELVAAITSSDGSTYYPDSVKGRFTISRDNAKNTVYLQINSLKPEDTAVYDCKAVRKYWLLGRYDYWGQGTQVTVSS”, “high polyreactivity”.
As for “QVQLVDSWGGLVQAGASLRLSCAASGNTYSSYAMGWYRKAPGKERELVASITGRGGSTYYSDSVKGRFTISRDNAKNIVYLQMNSLKPEDTAVYYCTAKRFYITDDPLDYFYWGQCTQVTVSS”, the “polyreactivity (PSR sort gate)” value is given as “high polyreactivity”.
Turning to “QVQLVDTAGGLVQAGGILRLSCAASGSTMYGYAMGWYRQTPGKERELVAAINTGGSTNYADSVKGRFTISRDNAKNTVYLQMNSLKPDDTAVYYCAASYSLSFWDKDDYWGQGTQVTVSS”, the “polyreactivity (PSR sort gate)” value is recorded as “low polyreactivity”.
As for “QVQLVDTGGGLGQAGGSLRLSCAASGSTFFPYAMGWYRQAPGKEREFVAGISSDGGTSYADSVKGRFTISRDNAKNTVYLQMNSLKPEDTAVYYCAALQADRDRYPEFDLMDYWGQGTQVSVSS”, the entry is “low polyreactivity”; as for “QVQLVDTGGGLVQAGGSLRLICAASGSIFKIYAMGWYRQAPGKERELVAAISSSGGSTYYADSVKGRFTISRDNAKNTVYLQMNCLKPEDTAVYYCAAGQSWRKNAYRYDYWGQGTQVTVSS”, “high polyreactivity”; as for “QVQLVEAGGGLVQAGGSLRLSCAAAGRTFSANALGWSRQAPGKERELVATITLRGGSTNYADSVKGPFTISRDHAKNTVYLQINSLKPEDTAVYDCNAYVNANVRRAYWGFDYWGQGTHVTVSS”, “high polyreactivity”.
For “QVQLVEAGGGLVQAGGSLRLSCAASGFIFSSNAMGWYRQAPGKERELVAGITASGVSTYYADSVKGRFTISRDNAKNTVYLQMNSLKPEDTAVYDCAALGLYYYFYSQYIAWDDYWGQGTQVTVSS”, the “polyreactivity (PSR sort gate)” value is given as “low polyreactivity”.
In the case of “QVQLVEAGGGLVQAGGSLRLSCAASGGTFTAYAMGWYRQAPGKERELVAAISASGDSTYYADSVKGRFTISRDNAKNTVYLQMNSLKPEDTAVYYCNADWYRTGRRGSDYWGQGTQVTVSS”, the “polyreactivity (PSR sort gate)” value is “low polyreactivity”.
On to “QVQLVEAGGGLVQAGGSLRLSCAASGRIIVRNAMGWYLQPPGKESELVAAISWSSGGTYYADSVKGRFTISRDNAKNTVYLQMNSLKPEDTAVYYCNADPSRAGDYWGQGTQVTVSS”, for which the “polyreactivity (PSR sort gate)” value is reported as “low polyreactivity”.
As to “QVQLVEAGGGLVQAGGSLRLSCAASGRILRYYTMGWYRPAPGKERELVAAISRRGTSTHYADSVKGRFTISRDHAKNTVYLQMNSLKPEDTAVYYCAADPSVWSDYYYWGQGTQVTVSS”, the “polyreactivity (PSR sort gate)” value is reported as “high polyreactivity”.
On to “QVQLVEAGGGLVQAGGSLRLSCAASGRTFGSNAMGWYRQAPGKERELVAVITTSGGSTYYADSVKGRFTISRDNAKNTVYLQMNSLKPEDTAVYYCAKRVATGYIWYGYGYWGQGTQVTVSS”, for which the “polyreactivity (PSR sort gate)” value is on record as “high polyreactivity”.
Take “QVQLVEAGGGLVQAGGSLRLSCAASGRTFLYYDMGRYRQAPGKERELVAVITLRGGRTYYADSVKGRFTISRDNAKNTVYLQMNILKPEDTAVYYCAKDYSRGYNYWGQGTQVTVSS”: the “polyreactivity (PSR sort gate)” value is “high polyreactivity”.
As for “QVQLVEAGGGLVQAGGSLRLSCAASGSIFFIYAMGWYRQAPGKERELVAAITSGDRTYYADSVKGRFTISRDNAKNTVYLQMNSLKPEDTAVYYCNADYYISYWGQGTQVTVSS”, the entry is “low polyreactivity”; as for “QVQLVEAGGGLVQAGGSLRLSCAASGYIGGNAMGWYRQAPGKERELVANISRSGGSTYYADSVKGRFTISRDNAKNTVYLQMNSLKPEDTAVYYCAAVSYGKYHWGMYYWGQGTQVTVSS”, “high polyreactivity”; as for “QVQLVEAGGRLVQAGGSLRLSCAASGGTFGTNNMGWYRQAPGKEMEVVAAISKRGGRTYYADSVKGRFTISRDNAKNTVYLQMNSLKPEDTAVYYCAADTGGNPKYDYWGQGTQVTVSS”, “high polyreactivity”.
Consider “QVQLVEAGGRLVQAGGSLRLSCAASGSIFYRNAMGGYRQKPGKEMELVAVITRRGGRKYYADSVKGRITISRDNAKNTVYLQMNSLIPEDTAVFYCAKRGWSDYNPIDYWGQGTPVTVSS”, for which the “polyreactivity (PSR sort gate)” value was “low polyreactivity”.
For “QVQLVEPGGCLVQAGGSLRLSCAASGSIFAYNSMGSYRQAPGKERELVAAITISGGRTYYADSVKGRFTISRDNAKNTVYLNMNSLKPEDTAVYYCNADNARGRSGVRRYYWGQGTQVTVSS”, the “polyreactivity (PSR sort gate)” value was “high polyreactivity”.
On to “QVQLVESAAGLVQAGASHRLSCAPSGRIFVNYAMGGYRQAPGKERELVAAITSDGSTSYADSVKGRFTISRDNAKNTVYLQMNSLKPEDSADYYCAKDFFEHSPVSLTYSSSKYDYWGQGTQVTVSS”, for which the “polyreactivity (PSR sort gate)” value is on record as “low polyreactivity”.
Turning to “QVQLVESAAGLVQAGGSLRLSCAASGFISPLYDMGGYRQAPGKERELVADITWRGGSTSYADSVKGRFTLSRDTAKKTGYLQMNSLKPEDTAVYYCAADARAFYYSNINGYWGQGTQVNVSS”, the “polyreactivity (PSR sort gate)” value is listed as “high polyreactivity”.
For “QVQLVESAAGLVQAGGSLRLSCAASGITFYRNAMGWYRQARGNEMELGAAITWNGGRTYYADSVKGRFTISRDNAKNTVYLQMNSLKPEDTALYYCAADSGTRNLASYRYYYWGQGTQVTVSS”, the “polyreactivity (PSR sort gate)” value is given as “high polyreactivity”.
Turning to “QVQLVESAAGLVQAGGSLRLSCAASGLNSSYYAMGWYRQAPGKERELVAAISRCGSTNYADSVKGRFTISRDNGKNTLYLQMNSLKPEDTAVYYCNADEYGGSTGRKGRYNYWGQGTQVTVSS”, the “polyreactivity (PSR sort gate)” value was “low polyreactivity”.
For the sequence “QVQLVESAAGLVQAGGSLRLSCAASGRIFGSYVMGWYRQAPGKERELVAAISASGGSTYYADSVKGRFTISRDNAKNTVYLQMNSLKPEDTAVYYCAATSIYTWWDLLDYWGQGTQVTVSS”, the “polyreactivity (PSR sort gate)” value is “high polyreactivity”.
“QVQLVESAAGLVQAGGSLRLSCAASGRNFYYYAMGWYRQAPGKEREVVAAINWSGGGTYYADSVKGRFTISRDNAKNTVYLQMNSLKPEDTAVYYCAAGFRYRYYWGQGTQVTVSS”: the “polyreactivity (PSR sort gate)” value is recorded as “high polyreactivity”.
For the sequence “QVQLVESAAGLVQAGGSLRLSCAASGSILKLNAMGWYRQAPGKERELVAAISRGGRTYYADSVKGRFTISRDNAKNTVYLQMHSLKPEDTAVYYCAADACLLGPGDFNYWGQGTQVTVSS”, the “polyreactivity (PSR sort gate)” value is on record as “low polyreactivity”.
The result for “QVQLVESAAGLVQAGGSLRLSCAASGSNFYGNAMGWYRQAPGKERELVAAIRWRGGRTYYADSVKGRFTISRDNAKNTVYLQMNSMKPEDTAVYYCNALPGVSHTQYDRVGYWGQGTQVTVSS” reads “high polyreactivity”; that for “QVQLVESAAGLVQAGGSLRLSCAPSGIIFGSYAMGWYRQEPGKESELVAAISRGTSTYYADSVKGRFTISRDNAKNTVYLQMNSLKPEDTAVYYCAATRQQYGPLSRFVYWYYYWGQGTQVTVSS”, “low polyreactivity”.
